To fix the notation:
B1: Fc-fused soluble cadherin-2 (extracellular domain of CDH2 fused to the Fc fragment of human IgG1) (Fc fusion, UniProt P19022 160-724, looked up)
chain: DWVIPPINLPENSRGPFPQELVRIRSDRDKNLSLRYSVTGPGADQPPTGIFIINPISGQLSVTKPLDREQIARFHLRAHAVDINGNQVENPIDIVINVIDMNDNRPEFLHQVWNGTVPEGSKPGTYVMTVTAIDADDPNALNGMLRYRIVSQAPSTPSPNMFTINNETGDIITVAAGLDREKVQQYTLIIQATDMEGNPTYGLSNTATAVITVTDVNDNPPEFTAMTFYGEVPENRVDIIVANLTVTDKDQPHTPAWNAVYRISGGDPTGRFAIQTDPNSNDGLVTVVKPIDFETNRMFVLTVAAENQVPLAKGIQHPPQSTATVSVTVIDVNENPYFAPNPKIIRQEEGLHAGTMLTTFTAQDPDRYMQQNIRYTKLSDPANWLKIDPVNGQITTIAVLDRESPNVKNNIYNATFLASDNGIPPMSGTGTLQIYLLDINDNAPQVLPQEAETCETPDPNSINITALDYDIDPNAGPFAFDLPLSPVTIKRNWTITRLNGDFAQLNLKIKFLEAGIYEVPIIITDSGNPPKSNISILRVKVCQCDSNGDCTDVDRIVGAGLGTGA
notes: extracellular domain; also called Fc-CDH2; not shown: Fc fragment of human IgG1
B2: Fc-fused soluble cadherin-6 (extracellular domain of CDH6 fused to the Fc fragment of human IgG1) (Fc fusion)
chain: SWMWNQFFLLEEYTGSDYQYVGKLHSDQDRGDGSLKYILSGDGAGDLFIINENTGDIQATKRLDREEKPVYILRAQAINRRTGRPVEPESEFIIKIHDINDNEPIFTKEVYTATVPEMSDVGTFVVQVTATDADDPTYGNSAKVVYSILQGQPYFSVESETGIIKTALLNMDRENREQYQVVIQAKDMGGQMGGLSGTTTVNITLTDVNDNPPRFPQSTYQFKTPESSPPGTPIGRIKASDADVGENAEIEYSITDGEGLDMFDVITDQETQEGIITVKKLLDFEKKKVYTLKVEASNPYVEPRFLYLGPFKDSATVRIVVEDVDEPPVFSKLAYILQIREDAQINTTIGSVTAQDPDAARNPVKYSVDRHTDMDRIFNIDSGNGSIFTSKLLDRETLLWHNITVIATEINNPKQSSRVPLYIKVLDVNDNAPEFAEFYETFVCEKAKADQLIQTLHAVDKDDPYSGHQFSFSLAPEAASGSNFTIQDNKDNTAGILTRKNGYNRHEMSTYLLPVVISDNDYPVQSSTGTVTVRVCACDHHGNMQSCHAEALIHPTGLSTGA
notes: also called Fc-CDH6; Fc-fused CDH6; not shown: Fc fragment of human IgG1
B3: GST-fused GRS fragment F4 (C-terminal anticodon-binding domain, 175 amino acids) (other, not shown: a dimerising Fc or GST; small tags and cut ends)
chain: LYVEEVVPNVIEPSFGLGRIMYTVFEHTFHVREGDEQRTFFSFPAVVAPFKCSVLPLSQNQEFMPFVKELSEALTRHGVSHKVDDSSGSIGRRYARTDEIGVAFGVTIDFDTVNKTPHTATLRDRDSMRQIRAEISELPSIVQDLANGNITWADVEARYPLFEGQETGKKETIEE
notes: also called ABD; GST-GRS F4

For experiment [1], the target named is Fc-fused soluble cadherin-18 (extracellular domain of CDH18 fused to the Fc fragment of human IgG1) (human) (UniProt Q13634). The experiment can be described thus: SPR (ProteOn XPR36), Fc-cadherin amine-coupled to GLC chip, GRS as analyte, Langmuir 1:1 model.
The target of experiment [2] is T1, His-tagged recombinant human glycyl-tRNA synthetase (GRS), 685 amino acids (human, UniProt P41250 55-739).
T1 construct: Expressed in E. coli; also called His-GRS; his-tagged GRS; not shown: His tag from vector pET-28a (EcoRI/XhoI)
T1 sequence: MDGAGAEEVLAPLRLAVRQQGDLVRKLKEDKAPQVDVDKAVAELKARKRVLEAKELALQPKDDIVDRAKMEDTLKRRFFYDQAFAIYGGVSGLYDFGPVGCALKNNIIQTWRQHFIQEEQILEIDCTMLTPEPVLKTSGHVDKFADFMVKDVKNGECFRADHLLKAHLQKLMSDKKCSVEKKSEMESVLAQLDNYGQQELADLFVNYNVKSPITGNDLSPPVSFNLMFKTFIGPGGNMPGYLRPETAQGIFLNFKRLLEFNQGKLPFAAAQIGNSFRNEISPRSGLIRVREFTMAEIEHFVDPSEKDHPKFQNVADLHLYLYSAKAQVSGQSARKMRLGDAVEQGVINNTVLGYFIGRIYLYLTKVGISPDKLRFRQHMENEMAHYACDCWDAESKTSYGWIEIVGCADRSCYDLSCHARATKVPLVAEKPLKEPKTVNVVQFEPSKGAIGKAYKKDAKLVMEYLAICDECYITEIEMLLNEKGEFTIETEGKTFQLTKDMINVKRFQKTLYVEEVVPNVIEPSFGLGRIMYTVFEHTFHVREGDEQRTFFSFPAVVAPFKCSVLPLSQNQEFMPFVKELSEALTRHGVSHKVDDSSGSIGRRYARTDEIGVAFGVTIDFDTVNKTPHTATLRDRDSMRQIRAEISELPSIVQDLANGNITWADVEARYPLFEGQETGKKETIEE
The experiment can be described thus: ELISA: plate coated with His-GRS or BSA, Fc-fused cadherin added, detected with anti-human IgG1 Fc-HRP; axis OD 490nm. The protocol: (§1) (A) A panel of Fc-fused soluble cadherin family proteins was bound to His-tagged GRS or to BSA-coated plates, and complexes were detected with the IgG1 Fc-HRP (Thermo) reagent. (B) To confirm the binding between cadherins and GRS, Fc-CDH2, 6 and 18 were incubated with His-GRS. Fc-CDHs were precipitated with protein A/G agarose and co-precipitated GRS was determined by immunoblotting. (C) To calculate the equilibrium dissociation constant (IQ), immobilized Fc-fused (to gold chips) cadherins were incubated with GRS (31.25 nM˜1 uM). Binding of GRS to CDH6 was determined by surface plasmon resonance and expressed as resonance units (RU). (D) To confirm the binding between CDH6 and GRS domain peptides, Fc-CDH6 was incubated with different domains (F1, 2, 3 and 4) of GRS that were expressed as the GST fusion proteins. GST-GRS proteins were precipitated with GSH-sepharose beads and co-precipitated CDH6 was determined by immunoblotting. (E) Five difference cancers cells were determined for the expression of CDH6 by immunoblotting. (F) HCT116 cells were transfected with non-specific siRNA controls (si-con) or two differently designed siRNAs targeting CDH6 (#1 and #2), treated with biotinylated GRS (15 nM), and the binding of GRS was analyzed by immunoblotting. (G) HCT116 cells were transfected with si-con and si-CDH6 as described above, and cell binding of GRS was measured by FACS analysis. (H) HCT116 cells were incubated with His-GRS (150 nM). To neutralize the effects of GRS, Fc-fused CDH6 (300 nM) was added and the cell viability was determined by the MTT assay. Error bars represent standard deviation. (I) The binding between CDH6 and GRS domain peptides was again confirmed by ELISA assay.
To identifying the receptor of GRS, a Maxisorp plate (Nunc, Rochester, N.Y.) was used for an ELISA detection. The plate were coated with purified his-tagged GRS (1 ug/ml) or BSA (1 ug/ml) in phosphate buffer saline and then blocked (PBS, 4% non-fat milk). Fc-fusion cadherin family proteins (1 ug/ml) were added to the plate and after washing with PBST (0.05% Tween20), the plates were incubated with anti-human IgG1 Fc-HRP (Thermo, Waltham, Mass.). […]

The target in experiment [3] is T1, His-tagged recombinant human …. The experiment can be described thus: SPR (ProteOn XPR36), Fc-cadherin amine-coupled to GLC chip, GRS as analyte, Langmuir 1:1 model. As to the method:
Binding of GRS to CDH6 was determined by surface plasmon resonance and expressed as resonance units (RU). (D) To confirm the binding between CDH6 and GRS domain peptides, Fc-CDH6 was incubated with different domains (F1, 2, 3 and 4) of GRS that were expressed as the GST fusion proteins. GST-GRS proteins were precipitated with GSH-sepharose beads and co-precipitated CDH6 was determined by immunoblotting. (E) Five difference cancers cells were determined for the expression of CDH6 by immunoblotting. (F) HCT116 cells were transfected with non-specific siRNA controls (si-con) or two differently designed siRNAs targeting CDH6 (#1 and #2), treated with biotinylated GRS (15 nM), and the binding of GRS was analyzed by immunoblotting. (G) HCT116 cells were transfected with si-con and si-CDH6 as described above, and cell binding of GRS was measured by FACS analysis. […] To neutralize the effects of GRS, Fc-fused CDH6 (300 nM) was added and the cell viability was determined by the MTT assay. […]
Binding of GRS to the cadherin-Fc fusion proteins was determined by the SPR technique using a ProteOn XPR36 Protein Interaction Array System (BioRad). […] The binding was determined by the change in resonance units (RU), where one resonance unit is defined as 1 pg/mm². The Sensogram was processed by subtracting the binding response recorded from the control surface. […]

Experiment [4] concerns the target B2. The experiment is described as follows: GST pull-down with GSH-sepharose, immunoblot for CDH6. The protocol: as §1, with “(H) HCT116 cells were incubated with His-GRS (150 nM). To neutralize the effects of GRS, Fc-fused CDH6 (300 nM) was added and the cell viability was determined by the MTT assay. Error bars represent standard deviation. (I) The binding between CDH6 and GRS domain peptides was again confirmed by ELISA assay.” left out

The term Kd denotes the concentration at which binding is half-saturated. In turn, “His-tagged recombinant human glycyl-tRNA synthetase (GRS), 685 amino acids (from UniProt P41250 55-739) (enzyme)” showed an equilibrium dissociation constant (Kd) in experiment [1] of 1.25 nM. As to B1, the binding result in experiment [2] is recorded as “no binding (tested: 1 ug/ml (single concentration))”. Consider B2, for which the Kd in experiment [3] was 3.4 nM. With B3, in experiment [4], the binding result is “binds”.

(Values after patent US20140220596A1 (MEDICINAL BIOCONVERGENCE RESEARCH CENTER, published 2014).)
